# Ends that are not written are not given here. * marks the point of attachment. Biotin = O=C1N[C@H]2[C@H](CS[C@H]2CCCCC(=O)*)N1
# T1: GEF PDZ-GST fusion protein (Homo sapiens (Human), UniProt Q8TEU7 293-400)
# T1 construct: The label GEF is not explained in the excerpts
# T1 sequence: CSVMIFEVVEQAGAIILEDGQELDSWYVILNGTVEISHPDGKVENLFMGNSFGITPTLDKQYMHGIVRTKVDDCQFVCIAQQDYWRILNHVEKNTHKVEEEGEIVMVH
# T2: GST-LIM protein PDZ domain fusion protein (Human, UniProt Q96HC4 2-85)
# T2 construct: also called Human LIM protein; not shown: glutathione S-transferase encoded by vector pGEX-3X (Pharmacia)
# T2 sequence: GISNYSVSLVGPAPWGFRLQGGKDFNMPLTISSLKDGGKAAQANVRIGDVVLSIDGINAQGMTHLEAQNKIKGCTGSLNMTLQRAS
# T3: GST-41.8 kD protein (KIAA0751) PDZ domain fusion protein (Mus musculus (Mouse), UniProt Q9EQZ7 682-763)
# T3 construct: also called 41 kd; hypoth; not shown: glutathione S-transferase encoded by vector pGEX-3X (Pharmacia)
# T3 sequence: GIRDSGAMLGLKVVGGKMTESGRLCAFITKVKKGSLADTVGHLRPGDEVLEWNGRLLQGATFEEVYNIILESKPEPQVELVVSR
# T4: KIAA0807 (PDZ domain)-GST fusion protein (human, UniProt Q6P0Q8 1104-1192)
# T4 construct: also called K807; KIAA807; not shown: glutathione S-transferase encoded by vector pGEX-3X (Pharmacia)
# T4 sequence: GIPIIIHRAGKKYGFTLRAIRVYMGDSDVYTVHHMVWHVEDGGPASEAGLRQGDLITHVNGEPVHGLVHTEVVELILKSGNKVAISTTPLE
# T5: GST-RGS12 PDZ domain fusion protein (human, UniProt O14924 17-85)
# T5 construct: also called human regulator of G-protein signalling 12; not shown: glutathione S-transferase encoded by vector pGEX-3X (Pharmacia)
# T5 sequence: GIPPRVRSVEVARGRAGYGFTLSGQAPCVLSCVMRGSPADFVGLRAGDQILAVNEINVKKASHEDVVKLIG
# T6: GST-AF6 PDZ domain fusion protein (Homo sapiens (Human), UniProt P55196 1001-1093)
# T6 construct: also called af-6 protein; not shown: glutathione S-transferase encoded by vector pGEX-3X (Pharmacia)
# T6 sequence: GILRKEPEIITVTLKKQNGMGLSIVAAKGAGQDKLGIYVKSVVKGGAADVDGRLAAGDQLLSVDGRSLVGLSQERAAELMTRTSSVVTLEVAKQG
# T7: GST-KIAA0303 PDZ domain fusion protein (Homo sapiens (Human), UniProt O15021 1138-1228)
# T7 construct: also called K303; not shown: glutathione S-transferase encoded by vector pGEX-3X (Pharmacia)
# T7 sequence: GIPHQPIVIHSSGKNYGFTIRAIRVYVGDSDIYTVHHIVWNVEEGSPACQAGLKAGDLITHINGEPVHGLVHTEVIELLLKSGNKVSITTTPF
# T8: GST-PTN-4 PDZ domain fusion protein (Homo sapiens (Human), UniProt P29074 517-605)
# T8 construct: also called protein-tyrosine phosphatase meg1; not shown: glutathione S-transferase encoded by vector pGEX-3X (Pharmacia)
# T8 sequence: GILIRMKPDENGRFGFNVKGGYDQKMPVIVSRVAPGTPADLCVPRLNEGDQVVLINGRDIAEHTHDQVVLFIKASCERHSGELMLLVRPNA
# Assays:
# [1] = biological target: T9, GST-PSD95 fusion protein (PDZ domains 1-3) (human, UniProt P31016 56-395 (rat entry)); test: G assay: biotinylated peptide on plate-bound GST-PDZ fusion, OD 450 nm
# T9 construct: also called human post-synaptic density protein 95; not shown: glutathione S-transferase encoded by vector pGEX-3X (Pharmacia)
# T9 sequence (P31016 other isoform, or with tags, fused parts or gaps): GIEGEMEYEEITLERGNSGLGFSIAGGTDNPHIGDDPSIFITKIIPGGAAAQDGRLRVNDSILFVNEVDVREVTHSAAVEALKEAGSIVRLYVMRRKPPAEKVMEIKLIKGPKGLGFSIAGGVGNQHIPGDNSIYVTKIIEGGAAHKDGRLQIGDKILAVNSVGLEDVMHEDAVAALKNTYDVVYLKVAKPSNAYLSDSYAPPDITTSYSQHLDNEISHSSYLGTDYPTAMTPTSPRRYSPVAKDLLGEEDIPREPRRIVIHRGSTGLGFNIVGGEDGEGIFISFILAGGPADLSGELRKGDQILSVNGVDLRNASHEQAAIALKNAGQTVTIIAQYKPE
# [2] = biological target: T1, GEF PDZ-GST fusion protein; test: A/G assays
# [3] = biological target: T2, GST-LIM protein PDZ domain fusion …; test: A/G assays
# [4] = biological target: T3, GST-41.8 kD protein (KIAA0751) PDZ …; test: G assay: biotinylated peptide on plate-bound GST-PDZ fusion, streptavidin-HRP, OD 450 nm
# [5] = biological target: T4, KIAA0807 (PDZ domain)-GST fusion protein; test: A/G plate assays, Table 2 matrix
# [6] = biological target: T9, GST-PSD95 fusion protein (PDZ domains …); test: A/G plate assays, Table 2 matrix
# [7] = biological target: T5, GST-RGS12 PDZ domain fusion protein; test: A/G plate assays, Table 2 matrix
# [8] = biological target: T3, GST-41.8 kD protein (KIAA0751) PDZ …; test: A/G plate assays, Table 2 matrix
# [9] = biological target: T2, GST-LIM protein PDZ domain fusion …; test: A/G plate assays, Table 2 matrix
# [10] = biological target: T6, GST-AF6 PDZ domain fusion protein; test: A/G plate assays, Table 2 matrix
# [11] = biological target: T9, GST-PSD95 fusion protein (PDZ domains …); test: G assay: biotinylated peptide on plate-bound GST-PDZ fusion, streptavidin-HRP, OD 450 nm
# [12] = biological target: T10, GST-TIAM1 PDZ domain fusion protein (Homo sapiens (Human), UniProt Q13009 845-931); test: A/G plate assays, Table 2 matrix
# T10 construct: also called TLAM1; T-lymphoma invasion and metastasis inducing protein 1; not shown: glutathione S-transferase encoded by vector pGEX-3X (Pharmacia)
# T10 sequence (Q13009 other isoform, or with tags, fused parts or gaps): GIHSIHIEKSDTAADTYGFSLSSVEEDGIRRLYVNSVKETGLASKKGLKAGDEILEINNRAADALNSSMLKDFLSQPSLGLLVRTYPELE
# [13] = biological target: T3, GST-41.8 kD protein (KIAA0751) PDZ …; test: A/G assays
# [14] = biological target: T7, GST-KIAA0303 PDZ domain fusion protein; test: A/G plate assays, Table 2 matrix
# [15] = biological target: T8, GST-PTN-4 PDZ domain fusion protein; test: A/G plate assays, Table 2 matrix
# [16] = biological target: T9, GST-PSD95 fusion protein (PDZ domains …); test: A/G assays
# [17] = biological target: T9, GST-PSD95 fusion protein (PDZ domains …); test: G assay titration of biotinylated peptide on plate-bound GST-PDZ, apparent affinity from saturation fit
# [18] = biological target: T4, KIAA0807 (PDZ domain)-GST fusion protein; test: G assay on KIAA0807:GST fusion protein, 10 uM labeled peptide
Binder,binding result [2],binding result [3],binding result [4],binding result [5],binding result [6],binding result [8],binding result [13],other results
"Biotin-PYGTAMEKAQLKPPATSDA (also called CD49E (alpha-4)) [CD49E C-terminal peptide AA11L, biotinylated]",no binding,no binding,binds,–,–,–,–,binding result [1]: no binding
"Biotin-SVFSIPTLWSPWPPSSSSQL (also called CD3η; CD3-eta) [CD3n C-terminal peptide AA4L, biotinylated]",no binding,no binding,binds,binds,binds,–,–,–
"Biotin-TREDIYVNYPTFSRRPKTRV [DNAM-1 C-terminal peptide AA22L, biotinylated]",no binding,–,–,–,–,binds,–,binding result [7]: binds; binding result [9]: binds; binding result [10]: binds; binding result [11]: binds
"Biotin-PKQANGGAYQKPTKQEEFYA (also called CD138 (syndecan-1); CD138 (syndecan)) [CD138 C-terminal peptide AA18L, biotinylated]",no binding,no binding,binds,–,–,–,–,binding result [1]: no binding; binding result [12]: binds
"Biotin-SFPPCGHRENVPGQSLVSFV (Marked (S), sticky; also called Spectrin beta (S); Spectrin β) [Spectrin (beta) C-terminal peptide AA32L, biotinylated]",–,no binding,–,binds,binds,–,no binding,binding result [14]: binds; binding result [15]: binds; binding result [10]: binds
"Biotin-STNHSIGSTQSTPCSTSSMA (also called CD105 (endoglin)) [CD105 C-terminal peptide AA16L, biotinylated]",no binding,–,–,–,–,–,no binding,binding result [16]: no binding; binding result [9]: binds
"Biotin-KDITSDSENSNFRNEIQSLV (also called CD95 (Apo-1/Fas); AAI3L) [CD95 (Fas) C-terminal peptide AA13L, biotinylated]",no binding,no binding,binds,–,–,–,–,Kd [17]: 85 µM
"Biotin-TTNNNPNSAVNIKKIFTDV [KV1.3 C-terminal peptide AA33L, biotinylated]",no binding,no binding,–,binds,–,binds,–,binding result [7]: binds; binding result [11]: binds
"Biotin-EVICYIEKPGVETLEDSVF [CDW125 (IL5R) C-terminal peptide AA28L, biotinylated]",no binding,no binding,–,–,–,–,no binding,binding result [16]: no binding; binding result [7]: binds; binding result [15]: binds
"Biotin-QGDPALQDAGDSSRKEYFI (also called GC) [Glycophorin C C-terminal peptide AA37L, biotinylated]",no binding,no binding,–,–,binds,binds,–,binding result [10]: binds
"Biotin-ARKANMKGSYSLVEAQKSKV (also called CD106) [VCAM1 C-terminal peptide AA17L, biotinylated]",no binding,no binding,–,binds,–,binds,–,binding result [16]: no binding; binding result [12]: binds; binding result [14]: binds
"Biotin-LASKSAEEGKQIPDSLSTDL [DOCK2 C-terminal peptide AA40L, biotinylated]",no binding,no binding,–,–,binds,–,no binding,binding result [18]: binds
"Biotin-ISGTPTSTMVHGMTSSSSVV [Clasp-2 C-terminal peptide AA2L, biotinylated]",no binding,no binding,–,–,–,–,–,Kd [17]: 45 µM

# Reference: US20050037969A1 (ARBOR VITA, published 2005)
